The text below walks through data of patent publication US20260265329A1, “POLYPEPTIDE AND DERIVATIVE THEREOF, COMPOSITION, AND USE THEREOF” (HANGZHOU SCIWIND BIOSCIENCES CO., LTD., priority 2023, published 2026).

T1: human amylin receptor on CHO-K1/Ga15/AMY3 cells (amylin receptor/CRE-luc cell line) (human) (UniProt P30988)
T1 sequence (looked up) 1: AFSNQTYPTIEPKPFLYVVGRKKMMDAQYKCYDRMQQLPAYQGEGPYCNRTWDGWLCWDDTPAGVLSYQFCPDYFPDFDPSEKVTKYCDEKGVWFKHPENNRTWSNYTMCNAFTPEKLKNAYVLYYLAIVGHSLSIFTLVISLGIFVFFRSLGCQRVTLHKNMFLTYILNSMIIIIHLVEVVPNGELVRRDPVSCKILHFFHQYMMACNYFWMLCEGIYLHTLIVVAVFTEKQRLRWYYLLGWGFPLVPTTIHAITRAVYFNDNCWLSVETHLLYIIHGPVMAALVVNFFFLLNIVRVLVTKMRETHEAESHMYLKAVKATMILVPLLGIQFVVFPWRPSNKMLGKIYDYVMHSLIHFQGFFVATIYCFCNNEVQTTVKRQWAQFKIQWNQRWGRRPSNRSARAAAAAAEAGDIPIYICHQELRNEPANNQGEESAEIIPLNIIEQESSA
T1 sequence (looked up) 2: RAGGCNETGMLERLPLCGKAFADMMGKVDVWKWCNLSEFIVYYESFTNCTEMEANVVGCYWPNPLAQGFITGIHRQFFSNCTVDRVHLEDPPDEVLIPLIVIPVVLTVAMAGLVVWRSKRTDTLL

B1: M34 (peptide)
peptide: {C20 diacid}-D[AEEA][AEEA]ASQLSTAATQRLADFLRHSSNNLKPILPPTNVGSNT[Hyp]-NH2
SMILES: CC[C@H](C)[C@H](NC(=O)[C@@H]1CCCN1C(=O)[C@H](CCCCN)NC(=O)[C@H](CC(C)C)NC(=O)[C@H](CC(N)=O)NC(=O)[C@H](CC(N)=O)NC(=O)[C@H](CO)NC(=O)[C@H](CO)NC(=O)[C@H](Cc1c[nH]cn1)NC(=O)[C@H](CCCNC(=N)N)NC(=O)[C@H](CC(C)C)NC(=O)[C@H](Cc1ccccc1)NC(=O)[C@H](CC(=O)O)NC(=O)[C@H](C)NC(=O)[C@H](CC(C)C)NC(=O)[C@H](CCCNC(=N)N)NC(=O)[C@H](CCC(N)=O)NC(=O)[C@@H](NC(=O)[C@H](C)NC(=O)[C@H](C)NC(=O)[C@@H](NC(=O)[C@H](CO)NC(=O)[C@H](CC(C)C)NC(=O)[C@H](CCC(N)=O)NC(=O)[C@H](CO)NC(=O)[C@H](C)NC(=O)COCCOCCNC(=O)COCCOCCNC(=O)[C@H](CC(=O)O)NC(=O)CCCCCCCCCCCCCCCCCCC(=O)O)[C@@H](C)O)[C@@H](C)O)C(=O)N[C@@H](CC(C)C)C(=O)N1CCC[C@H]1C(=O)N1CCC[C@H]1C(=O)N[C@H](C(=O)N[C@@H](CC(N)=O)C(=O)N[C@H](C(=O)NCC(=O)N[C@@H](CO)C(=O)N[C@@H](CC(N)=O)C(=O)N[C@H](C(=O)N1C[C@H](O)C[C@H]1C(N)=O)[C@@H](C)O)C(C)C)[C@@H](C)O
B2: M33 (peptide)
peptide: {C20 diacid-βAsp-AEEA-AEEA}-ASQLSTAATQRLADFLRHSSNNLKPILPPTNVGSNT[Hyp]-NH2
SMILES: CC[C@H](C)[C@H](NC(=O)[C@@H]1CCCN1C(=O)[C@H](CCCCN)NC(=O)[C@H](CC(C)C)NC(=O)[C@H](CC(N)=O)NC(=O)[C@H](CC(N)=O)NC(=O)[C@H](CO)NC(=O)[C@H](CO)NC(=O)[C@H](Cc1c[nH]cn1)NC(=O)[C@H](CCCNC(=N)N)NC(=O)[C@H](CC(C)C)NC(=O)[C@H](Cc1ccccc1)NC(=O)[C@H](CC(=O)O)NC(=O)[C@H](C)NC(=O)[C@H](CC(C)C)NC(=O)[C@H](CCCNC(=N)N)NC(=O)[C@H](CCC(N)=O)NC(=O)[C@@H](NC(=O)[C@H](C)NC(=O)[C@H](C)NC(=O)[C@@H](NC(=O)[C@H](CO)NC(=O)[C@H](CC(C)C)NC(=O)[C@H](CCC(N)=O)NC(=O)[C@H](CO)NC(=O)[C@H](C)NC(=O)COCCOCCNC(=O)COCCOCCNC(=O)C[C@H](NC(=O)CCCCCCCCCCCCCCCCCCC(=O)O)C(=O)O)[C@@H](C)O)[C@@H](C)O)C(=O)N[C@@H](CC(C)C)C(=O)N1CCC[C@H]1C(=O)N1CCC[C@H]1C(=O)N[C@H](C(=O)N[C@@H](CC(N)=O)C(=O)N[C@H](C(=O)NCC(=O)N[C@@H](CO)C(=O)N[C@@H](CC(N)=O)C(=O)N[C@H](C(=O)N1C[C@H](O)C[C@H]1C(N)=O)[C@@H](C)O)C(C)C)[C@@H](C)O
B3: M32 (peptide)
peptide: {C20 diacid}-E[AEEA][AEEA]ASQLSTAATQRLADFLRHSSNNLKPILPPTNVGSNT[Hyp]-NH2
SMILES: CC[C@H](C)[C@H](NC(=O)[C@@H]1CCCN1C(=O)[C@H](CCCCN)NC(=O)[C@H](CC(C)C)NC(=O)[C@H](CC(N)=O)NC(=O)[C@H](CC(N)=O)NC(=O)[C@H](CO)NC(=O)[C@H](CO)NC(=O)[C@H](Cc1c[nH]cn1)NC(=O)[C@H](CCCNC(=N)N)NC(=O)[C@H](CC(C)C)NC(=O)[C@H](Cc1ccccc1)NC(=O)[C@H](CC(=O)O)NC(=O)[C@H](C)NC(=O)[C@H](CC(C)C)NC(=O)[C@H](CCCNC(=N)N)NC(=O)[C@H](CCC(N)=O)NC(=O)[C@@H](NC(=O)[C@H](C)NC(=O)[C@H](C)NC(=O)[C@@H](NC(=O)[C@H](CO)NC(=O)[C@H](CC(C)C)NC(=O)[C@H](CCC(N)=O)NC(=O)[C@H](CO)NC(=O)[C@H](C)NC(=O)COCCOCCNC(=O)COCCOCCNC(=O)[C@H](CCC(=O)O)NC(=O)CCCCCCCCCCCCCCCCCCC(=O)O)[C@@H](C)O)[C@@H](C)O)C(=O)N[C@@H](CC(C)C)C(=O)N1CCC[C@H]1C(=O)N1CCC[C@H]1C(=O)N[C@H](C(=O)N[C@@H](CC(N)=O)C(=O)N[C@H](C(=O)NCC(=O)N[C@@H](CO)C(=O)N[C@@H](CC(N)=O)C(=O)N[C@H](C(=O)N1C[C@H](O)C[C@H]1C(N)=O)[C@@H](C)O)C(C)C)[C@@H](C)O
B4: M28 (peptide)
peptide: {C20 diacid}-DASQLSTAATQRLADFLRHSSNNLKPILPPTNVGSNT[Hyp]-NH2
SMILES: CC[C@H](C)[C@H](NC(=O)[C@@H]1CCCN1C(=O)[C@H](CCCCN)NC(=O)[C@H](CC(C)C)NC(=O)[C@H](CC(N)=O)NC(=O)[C@H](CC(N)=O)NC(=O)[C@H](CO)NC(=O)[C@H](CO)NC(=O)[C@H](Cc1c[nH]cn1)NC(=O)[C@H](CCCNC(=N)N)NC(=O)[C@H](CC(C)C)NC(=O)[C@H](Cc1ccccc1)NC(=O)[C@H](CC(=O)O)NC(=O)[C@H](C)NC(=O)[C@H](CC(C)C)NC(=O)[C@H](CCCNC(=N)N)NC(=O)[C@H](CCC(N)=O)NC(=O)[C@@H](NC(=O)[C@H](C)NC(=O)[C@H](C)NC(=O)[C@@H](NC(=O)[C@H](CO)NC(=O)[C@H](CC(C)C)NC(=O)[C@H](CCC(N)=O)NC(=O)[C@H](CO)NC(=O)[C@H](C)NC(=O)[C@H](CC(=O)O)NC(=O)CCCCCCCCCCCCCCCCCCC(=O)O)[C@@H](C)O)[C@@H](C)O)C(=O)N[C@@H](CC(C)C)C(=O)N1CCC[C@H]1C(=O)N1CCC[C@H]1C(=O)N[C@H](C(=O)N[C@@H](CC(N)=O)C(=O)N[C@H](C(=O)NCC(=O)N[C@@H](CO)C(=O)N[C@@H](CC(N)=O)C(=O)N[C@H](C(=O)N1C[C@H](O)C[C@H]1C(N)=O)[C@@H](C)O)C(C)C)[C@@H](C)O
B5: M31 (peptide)
peptide: {C20 diacid-γGlu-AEEA-AEEA}-ASQLSTAATQRLADFLRHSSNNLKPILPPTNVGSNT[Hyp]-NH2
SMILES: CC[C@H](C)[C@H](NC(=O)[C@@H]1CCCN1C(=O)[C@H](CCCCN)NC(=O)[C@H](CC(C)C)NC(=O)[C@H](CC(N)=O)NC(=O)[C@H](CC(N)=O)NC(=O)[C@H](CO)NC(=O)[C@H](CO)NC(=O)[C@H](Cc1c[nH]cn1)NC(=O)[C@H](CCCNC(=N)N)NC(=O)[C@H](CC(C)C)NC(=O)[C@H](Cc1ccccc1)NC(=O)[C@H](CC(=O)O)NC(=O)[C@H](C)NC(=O)[C@H](CC(C)C)NC(=O)[C@H](CCCNC(=N)N)NC(=O)[C@H](CCC(N)=O)NC(=O)[C@@H](NC(=O)[C@H](C)NC(=O)[C@H](C)NC(=O)[C@@H](NC(=O)[C@H](CO)NC(=O)[C@H](CC(C)C)NC(=O)[C@H](CCC(N)=O)NC(=O)[C@H](CO)NC(=O)[C@H](C)NC(=O)COCCOCCNC(=O)COCCOCCNC(=O)CC[C@H](NC(=O)CCCCCCCCCCCCCCCCCCC(=O)O)C(=O)O)[C@@H](C)O)[C@@H](C)O)C(=O)N[C@@H](CC(C)C)C(=O)N1CCC[C@H]1C(=O)N1CCC[C@H]1C(=O)N[C@H](C(=O)N[C@@H](CC(N)=O)C(=O)N[C@H](C(=O)NCC(=O)N[C@@H](CO)C(=O)N[C@@H](CC(N)=O)C(=O)N[C@H](C(=O)N1C[C@H](O)C[C@H]1C(N)=O)[C@@H](C)O)C(C)C)[C@@H](C)O

Starred links: 1 amine or outer side, 2 acyl side, 3 side chain; linkers in the order of their positions; H or OH if unused. Non-standard residues stand in square brackets, D forms with d. Primed or numbered codes have the meaning given here. *: point of attachment. C20 diacid = O=C(O)CCCCCCCCCCCCCCCCCCC(=O)*; γGlu = O=C(O)[C@H](CCC(=O)[*:2])N[*:1]; βAsp = O=C(O)[C@H](CC(=O)[*:2])N[*:1]; Hyp = O=C(O)[C@@H]1C[C@@H](O)CN1; Inp′ = not defined here; Trx′ = not defined here; AEEA = NCCOCCOCC(=O)O

This experiment deals with T1, human amylin receptor on CHO-K1/Ga15/AMY3 cells (amylin receptor/CRE-luc cell line) (human). The experiment can be described thus: cell-based or functional assay.
Regarding B1, the EC50 (luciferase assay, amylin receptor/CRE-luc CHO cells) came to 0.132 nM and the Relative activity (the EC50 ratio of Cagrilintide to the compound) was determined as 40%.
In the case of B2, the EC50 (luciferase assay, amylin receptor/CRE-luc CHO cells) is 0.145 nM and the Relative activity (the EC50 ratio of Cagrilintide to the compound) was 37%.
With B3, the EC50 (luciferase assay, amylin receptor/CRE-luc CHO cells) was found to be 0.115 nM and the Relative activity (the EC50 ratio of Cagrilintide to the compound) came to 44%.
Taken in the same sequence, the figures for {C20 diacid-Inp′-AEEA-AEEA}-ASQLSTAATQRLADFLRHSSNNLKPILPPTNVGSNT[Hyp]-NH2 [M36] were 0.059 nM and 91%.
Consider {C20 diacid-Trx′}-ASQLSTAATQRLADFLRHSSNNLKPILPPTNVGSNT[Hyp]-NH2 (reading uncertain) [M29], for which the EC50 (luciferase assay, amylin receptor/CRE-luc CHO cells) was found to be 0.122 nM and the Relative activity (the EC50 ratio of Cagrilintide to the compound) stood at 412%.
Taken in the same sequence, the figures for {C20 diacid-Trx′-AEEA-AEEA}-ASQLSTAATQRLADFLRHSSNNLKPILPPTNVGSNT[Hyp]-NH2 (reading uncertain) [M35] were 0.043 nM and 124%.
On to B4, for which the EC50 (luciferase assay, amylin receptor/CRE-luc CHO cells) worked out at 0.039 nM and the Relative activity (the EC50 ratio of Cagrilintide to the compound) worked out at 128%.
The matching figures for B5: 0.168 nM and 30%.
The matching figures for {C20 diacid-Inp′}-ASQLSTAATQRLADFLRHSSNNLKPILPPTNVGSNT[Hyp]-NH2 [M30]: 0.039 nM and 130%.
